This passage reports FRET efficiency results from patent WO2009147196A1.

Test [1] concerns the target EYFP-Rev (HIV-1) (UniProt P04618). The test can be described thus: FRET Rev-multimerization assay, purified proteins mixed.
Test [2] shares this target. The test can be described thus: FRET Rev-multimerization assay, negative control ECFP + EYFP-Rev.

EYFP-Rev (HIV-1), sequence (P04618 whole entry): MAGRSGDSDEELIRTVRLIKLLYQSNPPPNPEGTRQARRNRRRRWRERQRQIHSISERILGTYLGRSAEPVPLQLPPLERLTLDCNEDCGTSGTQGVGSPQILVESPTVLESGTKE

In the test with EYFP-Rev (HIV-1) [1], ECFP-Rev (from UniProt P04618 1-116) registered an FRET efficiency of 20 to 35%.

On to free ECFP, for which the FRET efficiency in the test with EYFP-Rev (HIV-1) [2] was 1.6%.
